In paper PMC5156837 one finds GTPase activity of TOC34 (free phosphate from GTP, 27°C, 30 min) with CBL10 and 5 mM CaCl2 data, which are given here for one substance.

The target of this assay is GST-TOC34 fusion protein (Arabidopsis thaliana) (UniProt Q38906).
Chain of UniProt Q38906 (Q38906 whole entry, the tested form may be a part): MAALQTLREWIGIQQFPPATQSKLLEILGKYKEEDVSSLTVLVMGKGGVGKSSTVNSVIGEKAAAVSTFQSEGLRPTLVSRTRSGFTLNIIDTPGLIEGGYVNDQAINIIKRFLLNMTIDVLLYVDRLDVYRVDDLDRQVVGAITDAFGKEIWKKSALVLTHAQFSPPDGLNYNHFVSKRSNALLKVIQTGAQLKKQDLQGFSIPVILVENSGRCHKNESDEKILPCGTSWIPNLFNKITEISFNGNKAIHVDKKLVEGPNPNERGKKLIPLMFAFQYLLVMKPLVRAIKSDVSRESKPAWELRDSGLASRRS

For the substance “CBL10-cMyc (thrombin-cleaved from GST-CBL10-cMyc) (from UniProt Q7FRS8 1-256)”, the GTPase activity of TOC34 (free phosphate from GTP, 27°C, 30 min) with CBL10 and 5 mM CaCl2 worked out at 0.5 fold.
